± gives the standard deviation of the averaged measurements.
Tested on: ATP
Assay: switch fluorescence ratio, 500 uM ATP over buffer (Cy3 cluster intensity, sum of 5 cycles each) (fold (ratio)); higher = stronger signal-on switching upon ATP binding; sequences stand for … in TCGTCGGCAGCGTCAGATGTGTATAAGAGACAGTTTTTTTTTTTTTTTTTTTTTTTTT…TC
Conditions: aptamer strand: ATP DNA aptamer (quencher-CACCTGGGGGAGTATTGCGGAGGAAGG + anchor), 100 nM annealed; ATP concentration: 500 uM
Procedure, shortened: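 For every switch-domain sequence, the fluorescence ratio is the mean of per-cluster values, each being summed target-cycle Cy3 intensity over summed buffer-cycle Cy3 intensity. Clusters outside 100-1000 RFU were excluded. On a modified Illumina MiSeq flow-cell, the Cy3-labelled switching-strand clusters were annealed to 100 nM quencher-labelled ATP aptamer, imaged in selection buffer and then after 15 min with 500 uM ATP at 22 °C. Five such cycles were run, with NaOH stripping and re-annealing between them.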
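Note: ATP exposure 15 min at 22 °C before imaging.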

## GGGTATTAGC
  switch fluorescence ratio: 0.982 ± 0.053

## GGGTATTGGA
  switch fluorescence ratio: 0.9828 ± 0.0047

## GGGTATTGTT
  switch fluorescence ratio: 0.995 ± 0.024

## GGGTATTTGG
  switch fluorescence ratio: 0.987 ± 0.042

## GGGTCAAGGA
  switch fluorescence ratio: 0.995 ± 0.019

## GGGTCAATAT
  switch fluorescence ratio: 1.13 ± 0.032

## GGGTCAGGGC
  switch fluorescence ratio: 1.06 ± 0.062

## GGGTCAGGGG
  switch fluorescence ratio: 1.09 ± 0.077

## GGGTCAGTCC
  switch fluorescence ratio: 0.978 ± 0.019

## GGGTCAGTGG
  switch fluorescence ratio: 0.976 ± 0.035

## GGGTCCATCT
  switch fluorescence ratio: 1 ± 0.013

## GGGTCCGAGA
  switch fluorescence ratio: 1.31 ± 0.4

## GGGTCGCAGC
  switch fluorescence ratio: 0.998 ± 0.015

## GGGTCGTGCT
  switch fluorescence ratio: 1.03 ± 0.022

## GGGTCTAGAG
  switch fluorescence ratio: 1.0295 ± 0.00078

## GGGTCTAGCG
  switch fluorescence ratio: 1.01 ± 0.0065

## GGGTCTATCG
  switch fluorescence ratio: 0.989 ± 0.034

## GGGTCTGGGT
  switch fluorescence ratio: 0.984 ± 0.026

## GGGTGAAATA
  switch fluorescence ratio: 1.02 ± 0.019

## GGGTGAAGAT
  switch fluorescence ratio: 1.011 ± 0.0088

## GGGTGACAGG
  switch fluorescence ratio: 0.978 ± 0.017

## GGGTGAGCTT
  switch fluorescence ratio: 1.01 ± 0.029

## GGGTGATTGG
  switch fluorescence ratio: 0.993 ± 0.018

## GGGTGCACGG
  switch fluorescence ratio: 1.01 ± 0.021

## GGGTGCCCTA
  switch fluorescence ratio: 0.986 ± 0.051

## GGGTGCGCTG
  switch fluorescence ratio: 1.03 ± 0.014

## GGGTGGAAGT
  switch fluorescence ratio: 0.981 ± 0.023

## GGGTGGATGG
  switch fluorescence ratio: 0.985 ± 0.024

## GGGTGGCCGT
  switch fluorescence ratio: 0.961 ± 0.029

## GGGTGGGAAT
  switch fluorescence ratio: 1.01 ± 0.043

## GGGTGGGACG
  switch fluorescence ratio: 1.23 ± 0.16

## GGGTGGGGAC
  switch fluorescence ratio: 0.975 ± 0.015

## GGGTGGGTTG
  switch fluorescence ratio: 1 ± 0.039

## GGGTGGGTTT
  switch fluorescence ratio: 1 ± 0.018

## GGGTGGTGGC
  switch fluorescence ratio: 0.964 ± 0.082

## GGGTGGTGTT
  switch fluorescence ratio: 1.01 ± 0.021

## GGGTGGTTGC
  switch fluorescence ratio: 0.99544 ± 4.2e-05

## GGGTGTACTG
  switch fluorescence ratio: 1 ± 0.0089

## GGGTGTAGAG
  switch fluorescence ratio: 1.05 ± 0.078

## GGGTGTGCCA
  switch fluorescence ratio: 1 ± 0.027

## GGGTGTGTTT
  switch fluorescence ratio: 0.985 ± 0.018

## GGGTGTTAGC
  switch fluorescence ratio: 1.02 ± 0.046

## GGGTGTTCTT
  switch fluorescence ratio: 0.997 ± 0.034

## GGGTGTTGAC
  switch fluorescence ratio: 0.993 ± 0.018

## GGGTTAACCT
  switch fluorescence ratio: 1.06 ± 0.075

## GGGTTAAGCT
  switch fluorescence ratio: 0.989 ± 0.029

## GGGTTAAGGA
  switch fluorescence ratio: 0.989 ± 0.036

## GGGTTAAGTC
  switch fluorescence ratio: 0.983 ± 0.028

## GGGTTAATGC
  switch fluorescence ratio: 1.03 ± 0.047

## GGGTTACGAT
  switch fluorescence ratio: 0.994 ± 0.021

## GGGTTAGAAG
  switch fluorescence ratio: 0.9797 ± 0.008

## GGGTTAGACT
  switch fluorescence ratio: 1.07 ± 0.086

## GGGTTAGCCT
  switch fluorescence ratio: 0.999 ± 0.011

## GGGTTAGGTA
  switch fluorescence ratio: 0.96 ± 0.053

## GGGTTATACG
  switch fluorescence ratio: 1.04 ± 0.031

## GGGTTATCCT
  switch fluorescence ratio: 1.07 ± 0.047

## GGGTTATGGA
  switch fluorescence ratio: 0.971 ± 0.021

## GGGTTATTCT
  switch fluorescence ratio: 1.01 ± 0.049

## GGGTTCACGG
  switch fluorescence ratio: 1 ± 0.014

## GGGTTCCGTG
  switch fluorescence ratio: 1.01 ± 0.024

## GGGTTCGGGG
  switch fluorescence ratio: 1 ± 0.056

## GGGTTCTGTA
  switch fluorescence ratio: 0.985 ± 0.03

## GGGTTCTTAT
  switch fluorescence ratio: 0.992 ± 0.027

## GGGTTGAAAA
  switch fluorescence ratio: 0.999 ± 0.039

## GGGTTGAATG
  switch fluorescence ratio: 0.978 ± 0.014

## GGGTTGACTT
  switch fluorescence ratio: 1.015 ± 0.0018

## GGGTTGAGAG
  switch fluorescence ratio: 0.985 ± 0.026

## GGGTTGATTA
  switch fluorescence ratio: 0.9898 ± 0.0084

## GGGTTGCAGC
  switch fluorescence ratio: 0.992 ± 0.032

## GGGTTGCCGA
  switch fluorescence ratio: 1.09 ± 0.19

## GGGTTGGAAA
  switch fluorescence ratio: 0.989 ± 0.03

## GGGTTGGAGG
  switch fluorescence ratio: 0.995 ± 0.021

## GGGTTGTGTA
  switch fluorescence ratio: 1 ± 0.014

## GGGTTGTGTT
  switch fluorescence ratio: 0.978 ± 0.013

## GGGTTTACTA
  switch fluorescence ratio: 0.9552 ± 0.0018

## GGGTTTATAA
  switch fluorescence ratio: 0.987 ± 0.023

Reference: the supplement of paper PMC10126150
